Values of other authors, collected in patent publication US20120058953A1, “COMPOSITIONS AND METHODS FOR ENHANCING APOPTOSIS” (Genentech, Inc., priority 2003, published 2012).

Test system: U87MG glioma cells
Conditions: athymic mice; Fulda et al. (2002); cited from earlier work

B1: APO2L/TRAIL: pro-apoptotic polypeptide APO2L/TRAIL (Accession Number: TN10_HUMAN) (protein, UniProt P50591 1-281, looked up)
Tumor necrosis factor ligand …: MAMMEVQGGPSLGQTCVLIVIFTVLLQSLCVAVTYVYFTNELKQMQDKYSKSGIACFLKEDDSYWDPNDEESMNSPCWQVKWQLRQLVRKMILRTSEETISTVQEKQQNISPLVRERGPQRVAAHITGTRGRSNTLSSPNSKNEKALGRKINSWESSRSGHSFLSNLHLRNGELVIHEKGFYYIYSQTYFRFQEEIKENTKNDKQMVQYIYKYTSYPDPILLMKSARNSCWSKDAEYGLYSIYQGGIFELKENDRIFVSVTNEHLIDMDHEASFFGAFLVG
- effect on established tumor: reduction in size of the tumor
